Results published in PMC11089504 (Journal of medicinal chemistry, 2024).

Tests used:
[1] = system: C=C(CC[C@@H](C)[C@H]1CC[C@@]2(C)C3=C(CC[C@]12C)[C@@]1(C)CC[C@H](O)[C@@H](C)[C@@H]1CC3)C(C)C; test: purified protein, by the assay type; conditions: other: 37 °C, 1 min reactions obtusifoliol, 20 min lanosterol
[2] = system: CC(C)=CCC[C@@H](C)[C@H]1CC[C@@]2(C)C3=C(CC[C@]12C)[C@@]1(C)CC[C@H](O)C(C)(C)[C@@H]1CC3; test: purified protein, by the assay type; conditions: other: 37 °C, 1 min reactions obtusifoliol, 20 min lanosterol
A. castellanii CYP51 = target: T1, A. castellanii CYP51 (Acanthamoeba castellanii, UniProt L8GJB3, V2A); test: A. castellanii CYP51 inhibition assay, reconstituted 1 h enzyme reaction; type: biochemical; conditions: 1 h IC50, 1 h reaction, 0.5 μM P450, 50 μM obtusifoliol
T1 sequence (L8GJB3 1-486 V2A): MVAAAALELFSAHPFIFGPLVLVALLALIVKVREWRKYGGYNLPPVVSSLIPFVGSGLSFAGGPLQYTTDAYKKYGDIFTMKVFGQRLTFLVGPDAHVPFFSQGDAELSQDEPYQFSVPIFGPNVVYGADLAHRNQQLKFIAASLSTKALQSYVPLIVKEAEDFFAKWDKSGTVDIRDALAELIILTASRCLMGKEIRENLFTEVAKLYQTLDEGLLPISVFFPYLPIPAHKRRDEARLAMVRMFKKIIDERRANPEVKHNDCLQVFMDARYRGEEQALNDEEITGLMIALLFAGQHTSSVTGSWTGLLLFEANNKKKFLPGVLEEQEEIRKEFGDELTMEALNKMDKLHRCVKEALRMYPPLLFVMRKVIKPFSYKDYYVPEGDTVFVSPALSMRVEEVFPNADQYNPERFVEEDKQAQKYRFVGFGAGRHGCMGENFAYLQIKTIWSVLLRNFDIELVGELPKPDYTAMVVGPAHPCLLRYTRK
T1 sequence (P00388 2-678 partner): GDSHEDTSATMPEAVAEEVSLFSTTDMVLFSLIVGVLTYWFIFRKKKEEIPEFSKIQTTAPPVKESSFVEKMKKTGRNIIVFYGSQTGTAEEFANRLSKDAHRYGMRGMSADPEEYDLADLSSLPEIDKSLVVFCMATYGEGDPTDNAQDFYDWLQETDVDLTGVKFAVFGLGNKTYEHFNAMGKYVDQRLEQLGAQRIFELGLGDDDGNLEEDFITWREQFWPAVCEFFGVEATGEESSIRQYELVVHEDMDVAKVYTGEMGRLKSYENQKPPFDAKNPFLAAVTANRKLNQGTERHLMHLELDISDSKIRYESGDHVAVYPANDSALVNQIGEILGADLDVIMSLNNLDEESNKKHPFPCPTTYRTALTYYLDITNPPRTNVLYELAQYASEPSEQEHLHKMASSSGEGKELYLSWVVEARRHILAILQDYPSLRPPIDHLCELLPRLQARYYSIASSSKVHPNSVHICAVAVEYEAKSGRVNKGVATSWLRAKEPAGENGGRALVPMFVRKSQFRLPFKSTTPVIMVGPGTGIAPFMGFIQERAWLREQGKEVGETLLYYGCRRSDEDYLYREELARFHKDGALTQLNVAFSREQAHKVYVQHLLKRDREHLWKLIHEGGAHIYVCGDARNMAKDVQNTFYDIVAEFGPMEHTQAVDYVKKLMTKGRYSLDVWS

Compound: A. castellanii CYP51 (Acanthamoeba castellanii str. Neff; V2A)
- Km [1]: 2.7 ± 0.3 µM
- kcat [1]: 0.513 s⁻¹
- kcat/Km [1]: 190000 M⁻¹ s⁻¹
- Km [2]: 52 ± 15 µM
- kcat [2]: 0.102 s⁻¹
- kcat/Km [2]: 2000 M⁻¹ s⁻¹

Compound: OC(Cn1cncn1)(Cn1cncn1)c1ccc(F)cc1F [fluconazole]
- IC50 (A. castellanii CYP51): 71 µM
